Among the data in patent publication US20260217789A1 (GLYCOERA, published 2026) are Kd, koff and kon values, retold here.

Assay [1] deals with T1, PLA2R glycoengineered polypeptide (human, UniProt Q13018 21-505, N-glycans, mainly A2GalNAc2 (83.6% of total N-glycan); six N-glycosylation sites: N93, N315, N433, N454, N473 and one in the C-terminal glycotag; occupancy per Table 2: N93 >99%, N315 <10%, N433 <1%, …).
T1 construct: Secreted from glycoengineered Leishmania tarentolae (cell line StCGP6199) and purified by IMAC; also called exemplary PLA2R glycoengineered polypeptide; glycoengineered PLA2R polypeptide
T1 sequence (Q13018 other isoform, or with tags, fused parts or gaps): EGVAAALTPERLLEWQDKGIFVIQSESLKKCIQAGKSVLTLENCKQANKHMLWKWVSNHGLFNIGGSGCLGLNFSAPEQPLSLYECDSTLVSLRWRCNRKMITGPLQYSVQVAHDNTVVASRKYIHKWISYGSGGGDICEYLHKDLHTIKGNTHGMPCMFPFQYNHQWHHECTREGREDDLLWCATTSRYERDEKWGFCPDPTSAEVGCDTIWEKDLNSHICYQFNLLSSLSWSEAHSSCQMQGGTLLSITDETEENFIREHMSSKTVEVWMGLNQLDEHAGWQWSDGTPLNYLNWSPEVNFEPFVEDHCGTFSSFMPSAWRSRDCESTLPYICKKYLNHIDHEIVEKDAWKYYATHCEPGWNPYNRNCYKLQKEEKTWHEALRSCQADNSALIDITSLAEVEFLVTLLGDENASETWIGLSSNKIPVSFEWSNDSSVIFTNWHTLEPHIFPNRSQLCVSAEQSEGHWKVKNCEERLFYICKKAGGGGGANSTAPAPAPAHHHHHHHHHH
In words: SPR (Biacore 8K), single cycle kinetics, immobilized ligand ASGPR1 1ug/mL (biotinylated, streptavidin capture), heterogeneous binding model; column KD1 (first component). From the text: (§1) Methods: Surface plasmon resonance (SPR) was used to measure binding kinetics (i.e., ka, kd, KD, equilibrium) of a glycoengineered PLA2R polypeptide. SPR data was collected with a Biacore 8K instrument to characterize interactions between the PLA2R glycoengineered polypeptide and surrogate anti-PLA2R antibody 12-6-5 in multiple assay formats. The surrogate antibody was either captured using the Fc tag or covalently immobilized on the sensor surface, and the PLA2R glycoengineered polypeptide construct was injected in increasing concentrations in a single cycle kinetics experiment. The contact time was 300 s and the dissociation time was 1200 s. The data was fit to a 1:1 binding model with the global fitting software provided by Cytivia. For ASGPR1 binding experiments, biotinylated recombinant human ASGPR1 (Acro Biosystems) was immobilized using streptavidin capture, and increasing concentrations of the PLA2R glycoengineered polypeptide were injected in a single cycle kinetics experiment. ASGPR1 assays included 2 mM CaCl₂) in the running buffer. The data were fit using a heterogeneous binding model using the Cytvia provided software.
In general terms: In SPR one partner is held on a chip, and binding of the other changes the refractive index at the surface.

The target of assay [2] is T1, PLA2R glycoengineered polypeptide. Kind of assay: SPR (Biacore 8K), single cycle kinetics, immobilized ligand ASGPR1 1ug/mL (biotinylated, streptavidin capture), heterogeneous binding model; column kd1 (first component).
Source text: as §1

Assay [3] shares this target. Kind of assay: SPR (Biacore 8K), single cycle kinetics, immobilized ligand ASGPR1 1ug/mL (biotinylated, streptavidin capture), heterogeneous binding model; column ka1 (first component).
Source text: as §1

For assay [4] the target is unchanged. Kind of assay: SPR, Biacore 8K, single cycle kinetics, heterogeneous binding model; biotinylated ASGPR1 on streptavidin, 2 mM CaCl2 (FIG. 1C).
Source text: as §1

For assay [5] the target is unchanged. Kind of assay: SPR, Biacore 8K, steady state KD; biotinylated ASGPR1 on streptavidin, 2 mM CaCl2 (FIG. 1C).
Source text: as §1

B1: biotinylated recombinant human ASGPR1 (Acro Biosystems) (receptor, UniProt P07306 62-291, looked up)
chain: QNSQLQEELRGLRETFSNFTASTEAQVKGLSTQGGNVGRKMKSLESQLEKQQKDLSEDHSSLLLHVKQFVSDLRSLSCQMAALQGNGSERTCCPVNWVEHERSCYWFSRSGKAWADADNYCRLEDAHLVVVTSWEEQKFVQHHIGPVNTWMGLHDQNGPWKWVDGTDYETGFKNWRPEQPDDWYGHGLGGGEDCAHFTDDGRWNDDVCQRPYRWVCETELDKASQEPPLL
modifications: biotinylated
notes: It was immobilized by streptavidin capture
As a reminder, the Kd is the free concentration of one partner at which half of the binding sites on the other are occupied at equilibrium, for simple one-to-one binding. High values mean weaker binding, low ones tighter binding. The term koff denotes the rate constant with which the complex falls apart. High values mean a short-lived complex, low ones a long-lived complex. Usually kon stands for the second-order rate constant of association. Low readings indicate slower complex formation, high ones faster complex formation. For B1, the Kd stood at 7 nM in assay [1] and 1280 nM in assay [5]. Further, the koff in assay [2] came to 0.00294 s⁻¹; in assay [4] it was 0.104 s⁻¹. For the same molecule, the kon was determined as 421000 M⁻¹ s⁻¹ in assay [3] and 80900 M⁻¹ s⁻¹ in assay [4].
